# Results published in patent US20130336973A1.
# Values joined by “and” are separate entries in the source; they are usually repeats but may differ in a detail not shown here. Equal values may be shown once.
# Experiments:
# [1] = target: FcγRIIB (CD32b), Y163 allotype (UniProt P31994); test: SPR
# [2] = target: FcγRIIIA (CD16a), F158 allotype (UniProt P08637); test: SPR
# [3] = target: neonatal Fc receptor (FcRn) (UniProt P55899); test: SPR, Ab captured on goat anti-human IgG, FcRn flowed, pH 6.0
# neonatal Fc receptor (FcRn), sequence (P55899 24-297 limits assumed, chain 1 of 2): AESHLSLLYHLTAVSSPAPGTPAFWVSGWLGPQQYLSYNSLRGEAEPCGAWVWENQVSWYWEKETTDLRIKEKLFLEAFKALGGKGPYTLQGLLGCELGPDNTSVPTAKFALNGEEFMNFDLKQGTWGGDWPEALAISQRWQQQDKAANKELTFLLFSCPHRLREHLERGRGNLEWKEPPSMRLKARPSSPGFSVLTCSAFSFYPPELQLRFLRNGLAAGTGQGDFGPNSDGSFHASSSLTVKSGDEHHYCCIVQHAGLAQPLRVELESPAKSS
# neonatal Fc receptor (FcRn), sequence (P61769 21-119 limits assumed, chain 2 of 2, further chain): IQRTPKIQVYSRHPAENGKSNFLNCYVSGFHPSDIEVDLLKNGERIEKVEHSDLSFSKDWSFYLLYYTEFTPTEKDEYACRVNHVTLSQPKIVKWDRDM
# FcγRIIB (CD32b), Y163 allotype, sequence (P31994 43-217 limits assumed): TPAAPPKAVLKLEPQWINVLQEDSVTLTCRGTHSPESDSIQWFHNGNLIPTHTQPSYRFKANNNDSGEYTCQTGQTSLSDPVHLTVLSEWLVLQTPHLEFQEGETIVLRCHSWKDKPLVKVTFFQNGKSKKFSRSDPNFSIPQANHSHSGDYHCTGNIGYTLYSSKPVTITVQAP
# FcγRIIIA (CD16a), F158 allotype, sequence (P08637 17-208 limits assumed): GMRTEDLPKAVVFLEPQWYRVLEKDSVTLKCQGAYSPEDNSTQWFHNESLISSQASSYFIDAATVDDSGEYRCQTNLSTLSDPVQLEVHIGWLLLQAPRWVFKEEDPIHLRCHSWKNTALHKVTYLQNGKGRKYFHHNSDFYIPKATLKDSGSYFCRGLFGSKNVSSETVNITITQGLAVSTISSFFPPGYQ
Substance,Kd [1] [µM],Kd [2],Kd [3] [µM]
T350V_L351Y_S400E_F405A_Y407V / T350V_T366L_N390R_K392L_T394W (antibody),0.91,–,–
T350V_L351Y_S400R_F405A_Y407V / T350V_T366L_N390E_K392M_T394W (antibody),0.89,0.42 µM,–
Y349C_T350V_F405A_Y407V / T350V_S354C_T366L_K392M_T394W (antibody),–,0.46 µM,4.1
D399C_F405A_Y407V / T366L_K392C_T394W (antibody),1.2,0.51 µM,–
Y349C_T350V_L351Y_S400E_F405A_Y407V / T350V_S354C_T366L_N390R_K392M_T394W (antibody),0.95,0.42 µM,–
T350V_S400E_F405A_Y407V / T350V_T366L_N390R_K392M_T394W (antibody),1,0.45 µM,–
T350V_L351Y_S400R_F405A_Y407V / T350V_T366L_N390D_K392M_T394W (antibody),0.94,–,–
Herceptin WT (antibody),1.7,–,3.7
T350V_L351Y_S400E_F405A_Y407V / T350V_L351Y_T366L_N390R_K392M_T394W (antibody),0.71,–,–
Q347R_T350V_L351Y_S400E_F405A_Y407V / T350V_K360E_T366L_N390R_K392M_T394W (antibody),0.92,0.42 µM,–
T350V_L351Y_F405A_Y407V / T350V_T366L_K392L_T394W (antibody),0.99,–,3.9
T350V_L351Y_S400E_F405A_Y407V / T350V_T366L_N390R_K392M_T394W (antibody),0.9,0.45 µM and 0.42 µM,5
T350V_L351Y_F405A_Y407V / T350V_T366L_K392M_T394W (antibody),1.2,0.46 µM,4.3
F405A_Y407V / T366L_K392M_T394W (antibody),–,0.46 µM,–
T350V_L351Y_S400E_F405A_Y407V / T350V_T366L_N390R_K392F_T394W (antibody),0.71,–,–
T350V_L351Y_S400E_F405T_Y407V / T350V_T366L_N390R_K392M_T394W (antibody),0.67,–,–
T350V_F405A_Y407V / T350V_T366L_K392M_T394W (antibody),1,–,–
F405A_Y407V / T366L_T394W (antibody),–,0.48 µM,–
T350V_L351Y_S400R_F405A_Y407V / T350V_T366L_K392M_T394W (antibody),0.89,–,–
T350V_L351Y_S400E_F405S_Y407V / T350V_T366L_N390R_K392M_T394W (antibody),0.83,0.42 µM,–
Y349C_F405A_Y407V / S354C_T366L_T394W (antibody),1.2,0.58 µM,–
Y349C_D399C_F405A_Y407V / S354C_T366L_K392C_T394W (antibody),–,0.63 µM,–
L351Y_F405A_Y407V / T366L_K392M_T394W (antibody),–,0.42 µM,5
